Results from paper PMC6378141 (Molecular psychiatry, 2018).

Molecular target: T1, D2R(L123W:R132L), short isoform, fused to Rluc8 (human, UniProt P14416-2 1-414, L123W | R132L)
T1 sequence: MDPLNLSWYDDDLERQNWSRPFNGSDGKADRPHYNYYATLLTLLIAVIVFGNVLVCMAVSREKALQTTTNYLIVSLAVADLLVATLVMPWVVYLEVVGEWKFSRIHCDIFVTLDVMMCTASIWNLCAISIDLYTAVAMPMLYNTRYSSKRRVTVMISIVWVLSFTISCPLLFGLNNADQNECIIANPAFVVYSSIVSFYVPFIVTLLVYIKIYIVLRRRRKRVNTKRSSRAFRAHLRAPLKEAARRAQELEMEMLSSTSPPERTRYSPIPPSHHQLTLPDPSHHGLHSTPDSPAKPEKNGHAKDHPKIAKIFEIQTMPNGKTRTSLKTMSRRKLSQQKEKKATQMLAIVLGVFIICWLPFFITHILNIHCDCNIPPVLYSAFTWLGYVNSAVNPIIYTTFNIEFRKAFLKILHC
Experiment: FRET or BRET

maximal DA-induced recruitment, % of D2R-WT: 132 % of D2R-WT
B1: bovine arrestin-2 fused to mVenus at its N-terminus (natural protein)
chain: MGDKGTRVFKKASPNGKLTVYLGKRDFVDHIDLVEPVDGVVLVDPEYLKERRVYVTLTCAFRYGREDLDVLGLTFRKDLFVANVQSFPPAPEDKKPLTRLQERLIKKLGEHAYPFTFEIPPNLPCSVTLQPGPEDTGKACGVDYEVKAFCAENLEEKIHKRNSVRLVIRKVQYAPERPGPQPTAETTRQFLMSDKPLHLEASLDKEIYYHGEPISVNVHVTNNTNKTVKKIKISVRQYADICLFNTAQYKCPVAMEEADDTVAPSSTFCKVYTLTPFLANNREKRGLALDGKLKHEDTNLASSTLLREGANREILGIIVSYKVKVKLVVSRGGLLGDLASSDVAVELPFTLMHPKPKEEPPHREVPEHETPVDTNLIELDTNDDDIVFEDFARQRLKGMKDDKEEEEDGTGSPRLNDR
